IntAct's records for PubMed 17403664

B1: Differentially expressed in FDCP 6 (Mus musculus), Q8C2K1 (parent)
chain: MALRKELLKSIWYAFTALDVEKSGKVSKSQLKVLSHNLYTVLNIPHDPVALEEHFRDDDDGPVSSQGYMPYLNKYILDKVEEGAFVKEHFDELCWTLTAKKNYRADGIGSSPLSNQDAFRLWCLFNFLSEDKYPLIMVPDEVEYLLKKLLGSLSLEMGLGELEELLAQDAQSAQTAVGLSVWQFLELFNSGRCLRGVGRDSLSMAIQEVYQELIQDVLKQGYLWKRGHLRRNWAERWFQLQPSSLCYFGSEECKEKRGTIPLDAHCCVEVLPDREGKRCMFCVKTASRTYEMSASDTRQRQEWTAAIQTAIRLQAEGKTSLHKDLKQKRREQREQRERRRAAKEEELLRLQQLQEEKERKLQELELLQEAQRQAERLLQEEEERRRSQHKELQQALEGQLREAEQARASMQAEMELKKEEAARQRQRIAELEEMQERLQEALQLEVKARRDEEAVRLAQTRLLEEEEEKLKQLMHLKEEQERYIERAQQEKQELQQEMALQSRSLQHAQQQLEEVRQNRQRADEDVEAAQRKLRQASTNVKHWNVQMNRLMHPIEPGDKRPTTSSSFTGFQPPPLARRDSSLKRLTRWGSQGNRTLSVNSSEQKSLNGGDETPILALASQEEKLDPAPGN
partner: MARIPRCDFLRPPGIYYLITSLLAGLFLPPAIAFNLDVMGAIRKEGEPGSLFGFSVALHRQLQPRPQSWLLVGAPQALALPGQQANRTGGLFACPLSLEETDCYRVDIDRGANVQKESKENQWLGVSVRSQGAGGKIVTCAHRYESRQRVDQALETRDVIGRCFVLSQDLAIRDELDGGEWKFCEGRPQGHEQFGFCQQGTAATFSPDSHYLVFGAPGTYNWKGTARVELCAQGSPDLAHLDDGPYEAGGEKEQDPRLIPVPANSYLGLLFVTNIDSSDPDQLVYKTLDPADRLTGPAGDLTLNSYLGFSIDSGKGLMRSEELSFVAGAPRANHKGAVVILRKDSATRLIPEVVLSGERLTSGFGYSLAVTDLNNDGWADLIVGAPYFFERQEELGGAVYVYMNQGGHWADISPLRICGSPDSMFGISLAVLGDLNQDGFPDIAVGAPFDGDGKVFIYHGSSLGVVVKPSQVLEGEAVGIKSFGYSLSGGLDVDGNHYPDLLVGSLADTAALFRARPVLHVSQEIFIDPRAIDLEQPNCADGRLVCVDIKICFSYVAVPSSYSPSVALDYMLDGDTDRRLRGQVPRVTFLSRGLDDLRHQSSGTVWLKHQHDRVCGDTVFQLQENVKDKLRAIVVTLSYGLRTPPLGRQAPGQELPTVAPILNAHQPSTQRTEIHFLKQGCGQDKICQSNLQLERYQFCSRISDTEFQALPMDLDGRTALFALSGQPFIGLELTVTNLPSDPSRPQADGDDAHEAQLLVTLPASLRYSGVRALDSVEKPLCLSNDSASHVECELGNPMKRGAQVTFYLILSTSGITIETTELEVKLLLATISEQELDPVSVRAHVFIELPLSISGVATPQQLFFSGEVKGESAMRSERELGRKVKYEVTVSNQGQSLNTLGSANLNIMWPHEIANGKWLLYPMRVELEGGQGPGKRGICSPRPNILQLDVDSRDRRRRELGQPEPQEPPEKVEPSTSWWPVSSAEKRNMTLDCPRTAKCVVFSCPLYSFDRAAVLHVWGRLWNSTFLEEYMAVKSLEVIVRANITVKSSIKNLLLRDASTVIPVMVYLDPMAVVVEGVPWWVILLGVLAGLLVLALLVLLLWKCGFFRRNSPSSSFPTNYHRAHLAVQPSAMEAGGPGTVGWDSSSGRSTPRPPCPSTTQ

Variants of: B1
Settings: with Itga7, Q61738-6

effect of a mutation on the interaction	Variant
decreasing interaction	Y210E
